Test results: the supplement of paper PMC6757056
± gives the standard deviation of the averaged measurements.

B1: library; a variant is named by its letters at N, in order (parent)
chain: GCUGUCACCGGUGCUUGGUACGUUAUAUUCAGCCGGUCUGAUGAGUCUNNNNNNAGACGAAACAGC

Legend:
(6R,S)-folinic acid [1] = variants of: B1; test: normalized RNA/DNA level without ligand (relative to sTRSVctl = 100) (log10 (% of sTRSVctl)); HEK293T overexpressing SLC46A1; higher = less ribozyme self-cleavage, higher mRNA level; details: without (6R,S)-folinic acid; ligand present: no
Procedure, shortened: (§1)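 Library plasmids carrying ribozyme switches linked to mCherry, or to eGFP in some ligand experiments, were transfected into HEK293T at 4 µg per 6-well well, with any ligand added 1 h earlier. Seventy-two hours on, total RNA was extracted with EDTA and reverse-transcribed, amplified, barcoded and sequenced. RNA level was RNA over DNA reads normalized to a spiked-in non-cleaving sequence or to the top sequences, then scaled and log-transformed. The top set was 25 sequences, the transform was ×100 and log10, and sequences needed ≥100 DNA reads.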

(6R,S)-folinic acid [2] = variants of: B1; test: normalized RNA/DNA level with ligand (relative to sTRSVctl = 100) (log10 (% of sTRSVctl)); HEK293T overexpressing SLC46A1; ligand concentration (+) RNA-Seq: 6 mM; higher = less ribozyme self-cleavage, higher mRNA level; details: with (6R,S)-folinic acid; ligand present: yes
Procedure, shortened: as §1

Variant | normalized RNA/DNA level without ligand (log10) ((6R,S)-folinic acid [1]) | normalized RNA/DNA level with ligand (log10) ((6R,S)-folinic acid [2])
AGUAGG | 1.897 ± 0.0057 | 2.02 ± 0.021
UUUUCU | 2.012 ± 0.011 | 2.01 ± 0.038
UUUUCC | 2.02 ± 0.022 | 2 ± 0.032
UCGGGU | 1.9958 ± 0.001 | 2.03 ± 0.038
AACGGC | 2.058 ± 0.0083 | 2.03 ± 0.027
GAACUG | 1.971 ± 0.0088 | 1.99 ± 0.028
GUCCAC | 2.006 ± 0.011 | 2.011 ± 0.017
GUCGAA | 1.9847 ± 0.0012 | 2.02 ± 0.026
UCACUC | 2.07 ± 0.01 | 2.05 ± 0.026
UAGCAC | 1.992 ± 0.0065 | 2 ± 0.036
CGAUCG | 2.042 ± 0.013 | 2.05 ± 0.034
CAUAUA | 1.954 ± 0.019 | 1.97 ± 0.036
CCGGUG | 2.04 ± 0.04 | 2.051 ± 0.0038
AAUCCG | 1.969 ± 0.014 | 2.02 ± 0.055
GAUCCG | 2.0564 ± 0.0019 | 2.05 ± 0.063
CCUCUG | 2.035 ± 0.011 | 2 ± 0.04
GGACUC | 2.0453 ± 0.0012 | 2.05 ± 0.03
CUACUG | 2.0146 ± 0.00058 | 2.04 ± 0.024
CUACUC | 2.05 ± 0.021 | 2.03 ± 0.039
CAAGGU | 1.976 ± 0.0082 | 1.97 ± 0.024
UCGUGC | 2.074 ± 0.015 | 2.055 ± 0.0071
UGCACG | 1.8081 ± 0.0015 | 1.977 ± 0.013
ACCGGC | 2.1359 ± 0.0014 | 2.085 ± 0.015
ACUGAU | 1.9488 ± 0.0011 | 2 ± 0.031

Variant | normalized RNA/DNA level without ligand (log10) ((6R,S)-folinic acid [1]) | normalized RNA/DNA level with ligand (log10) ((6R,S)-folinic acid [2])
CUGCUU | 2.046 ± 0.013 | 2.04 ± 0.03
CGAAAU | 1.942 ± 0.0046 | 1.967 ± 0.013
CUGUAG | 1.925 ± 0.016 | 2.02 ± 0.041
CACACG | 2.0281 ± 0.00028 | 2.04 ± 0.036
UGUACC | 2.019 ± 0.0028 | 2.03 ± 0.057
GGCGCC | 2.093 ± 0.017 | 2.07 ± 0.023
GGGCUC | 2.1006 ± 0.0021 | 2.1 ± 0.021
GGCGAA | 2.051 ± 0.0044 | 2.04 ± 0.021
UGCGCC | 2.07 ± 0.015 | 2.043 ± 0.0087
UGCGCA | 1.951 ± 0.002 | 1.98 ± 0.033
CGUAAG | 2.011 ± 0.0091 | 2.03 ± 0.018
CGAGCG | 1.994 ± 0.015 | 1.998 ± 0.017
AUUCUG | 1.94 ± 0.011 | 1.99 ± 0.043
AUUCUU | 2.02 ± 0.027 | 2.04 ± 0.023
UCGAGC | 2.022 ± 0.017 | 2.026 ± 0.011
UCUAAU | 1.974 ± 0.0063 | 2.005 ± 0.0055
UUUAUA | 1.993 ± 0.015 | 2 ± 0.03
AUGAAC | 1.95 ± 0.004 | 1.97 ± 0.048
GUGCGC | 1.965 ± 0.01 | 2.01 ± 0.057
ACACUC | 2.05 ± 0.027 | 2.03 ± 0.031
ACCUCC | 2.08 ± 0.0086 | 2.01 ± 0.028
CCGACC | 2.063 ± 0.0099 | 2.04 ± 0.062
UUUACA | 2.0168 ± 0.00066 | 2.029 ± 0.0067
UGUCAU | 1.955 ± 0.0075 | 2 ± 0.034

Variant | normalized RNA/DNA level without ligand (log10) ((6R,S)-folinic acid [1]) | normalized RNA/DNA level with ligand (log10) ((6R,S)-folinic acid [2])
CAAAAG | 1.903 ± 0.0085 | 1.945 ± 0.015
AUCAUG | 1.989 ± 0.009 | 2.005 ± 0.019
UUGCCG | 1.974 ± 0.0045 | 2.03 ± 0.038
AUAUAA | 1.956 ± 0.0059 | 1.96 ± 0.032
GAGAUC | 2.038 ± 0.0061 | 2.001 ± 0.014
AGGCUG | 2.0598 ± 0.0012 | 2.04 ± 0.0063
UGGCGU | 1.99 ± 0.031 | 2.03 ± 0.05
GGGAGA | 2.021 ± 0.0092 | 2.05 ± 0.043
UUACGG | 2.018 ± 0.0069 | 2.049 ± 0.016
AUCUUU | 2.07 ± 0.025 | 2.087 ± 0.017
UGGGGA | 1.836 ± 0.0073 | 1.99 ± 0.036
CGGCUG | 2.0746 ± 0.002 | 2.04 ± 0.027
AGGCGA | 2.0336 ± 0.00079 | 2.06 ± 0.023
AAAGGU | 1.939 ± 0.0029 | 2.01 ± 0.032
UAUGUU | 1.95 ± 0.022 | 2 ± 0.023
AGACAU | 1.994 ± 0.0052 | 2.02 ± 0.026
UUGCGG | 1.96 ± 0.02 | 2 ± 0.031
UCCAUC | 2.036 ± 0.018 | 2.01 ± 0.051
CUUCUC | 2.05 ± 0.0097 | 2.02 ± 0.056
CGCUAU | 1.981 ± 0.0029 | 2 ± 0.024
AGCGUU | 2 ± 0.021 | 2.015 ± 0.0096
CAGGGA | 1.962 ± 0.005 | 2 ± 0.029
UUAGUU | 1.972 ± 0.0056 | 1.97 ± 0.052
GCACAU | 1.991 ± 0.0072 | 2.01 ± 0.025

Variant | normalized RNA/DNA level without ligand (log10) ((6R,S)-folinic acid [1]) | normalized RNA/DNA level with ligand (log10) ((6R,S)-folinic acid [2])
AAGUCA | 1.969 ± 0.0021 | 1.98 ± 0.029
CCUUUG | 2.039 ± 0.017 | 2.01 ± 0.067
UCUUCU | 2.064 ± 0.0051 | 2.095 ± 0.011
UCCUGG | 1.91 ± 0.023 | 2.04 ± 0.023
AGGAAA | 1.942 ± 0.0081 | 1.99 ± 0.04
UUGCUU | 2.016 ± 0.013 | 2.04 ± 0.04
GGAGAG | 1.85 ± 0.02 | 1.97 ± 0.038
UCUCUA | 1.997 ± 0.0062 | 2.01 ± 0.04
GAAUGC | 1.943 ± 0.012 | 2 ± 0.036
AUUAUC | 2.062 ± 0.01 | 2.03 ± 0.022
CAGUGG | 1.91 ± 0.023 | 2.005 ± 0.0026
GCCGGC | 2.049 ± 0.0034 | 1.98 ± 0.051
UGCAAG | 1.778 ± 0.01 | 1.96 ± 0.029
ACGCCG | 2.0192 ± 0.00023 | 2.029 ± 0.013
AUCUAA | 2.0002 ± 0.0016 | 2.01 ± 0.042
GCCCGC | 2.0838 ± 0.0006 | 2.08 ± 0.03
GACUGC | 1.998 ± 0.0095 | 2.02 ± 0.037
GACUGG | 2.023 ± 0.018 | 2.018 ± 0.018
CUCCCC | 2.02 ± 0.033 | 2 ± 0.058
CUCCCU | 2.04 ± 0.044 | 2.05 ± 0.062
CUCACA | 2.036 ± 0.0022 | 2 ± 0.049
CGUGAU | 1.96 ± 0.0081 | 1.993 ± 0.0086
CUGACA | 1.996 ± 0.01 | 2.03 ± 0.022
GGUUCG | 2.0485 ± 5.4e-05 | 2.06 ± 0.048

Variant | normalized RNA/DNA level without ligand (log10) ((6R,S)-folinic acid [1]) | normalized RNA/DNA level with ligand (log10) ((6R,S)-folinic acid [2])
AUACUG | 1.939 ± 0.0046 | 2.01 ± 0.03
GCGACG | 1.989 ± 0.017 | 2.02 ± 0.045
UACAUU | 2.005 ± 0.0053 | 1.99 ± 0.042
GCGUGC | 2.043 ± 0.019 | 2.03 ± 0.038
ACGGGU | 1.989 ± 0.0096 | 2.04 ± 0.034
CAAGCC | 2.099 ± 0.01 | 2.03 ± 0.046
CGGUAC | 2.0071 ± 0.0016 | 1.992 ± 0.0076
UUCCCC | 2.058 ± 0.019 | 1.99 ± 0.022
AUCGCC | 2.041 ± 0.014 | 2 ± 0.053
ACUAGU | 2.02 ± 0.02 | 2.05 ± 0.026
ACUAGA | 1.969 ± 0.014 | 2.01 ± 0.039
CAGACG | 2.028 ± 0.0044 | 2.009 ± 0.0054
AGAGAG | 1.67 ± 0.022 | 1.966 ± 0.015
AGAGAC | 1.981 ± 0.0066 | 2.009 ± 0.016
AGAGAA | 1.953 ± 0.0039 | 1.99 ± 0.025
GGUCGU | 2.034 ± 0.015 | 2.029 ± 0.0084
UUUUAA | 1.973 ± 0.018 | 2.03 ± 0.02
ACCGAC | 2.0415 ± 0.00053 | 2.03 ± 0.058
GGCUCA | 2.073 ± 0.011 | 2.01 ± 0.033
GGCUCG | 2.067 ± 0.014 | 2.03 ± 0.042
